Here are results for 25 molecules from patent US20200297760A1, “COMPOSITIONS AND METHODS FOR REDUCING IMMUNE RESPONSES AGAINST CHIMERIC ANTIGEN RECEPTORS” (Juno Therapeutics, Inc., priority 2015, published 2020).

In the first experiment the target is HLA-A*02:01 (recombinant MHC class I molecule) (human). The experiment in a line: REVEAL MHC-peptide binding assay, recombinant MHC, score normalised to positive control = 100. The settings on record: remark: other sources report otherwise.
In the case of VAFIIFWVR [Synthetic peptide … (K28R)], the In Vitro Score (% of positive control peptide) came out at 1.2.

In the next experiment the target is HLA-A*03:01 (recombinant MHC class I molecule) (human). The description is as above. The note with it: remark: other sources report otherwise.
Take VAFIIFWVR [Synthetic peptide … (K28R)]: the In Vitro Score (% of positive control peptide) was found to be 0.7.

Another experiment has as its target HLA-A*02:01 (human). The experiment is described as follows: REVEAL MHC-peptide binding assay, recombinant HLA. The note with it: remark: other sources report otherwise.
For AFIIFWVHR, the In Vitro Score (% of positive control peptide) was determined as 0.3.

As to FIIFWVHRG, the In Vitro Score (% of positive control peptide) came out at 37.3.

WVQRGNKKL: the In Vitro Score (% of positive control peptide) was found to be 4.3.

Regarding IFWVARGRK, the In Vitro Score (% of positive control peptide) was 1.

With IFWVKRGSK, the In Vitro Score (% of positive control peptide) stood at 2.4.

Regarding IIFWVQRGR, the In Vitro Score (% of positive control peptide) was determined as 5.8.

Regarding IIFWVKRGR, the In Vitro Score (% of positive control peptide) was 1.7.

As for AFIIFWVAR, the In Vitro Score (% of positive control peptide) came to 2.2.

With IIFWVQRGA, the In Vitro Score (% of positive control peptide) is 95.3.

As for AFIIFWVSR, the In Vitro Score (% of positive control peptide) was 4.5.

As for IFWVQRGAK, the In Vitro Score (% of positive control peptide) was 11.7.

On to IFWVHRGRK, for which the In Vitro Score (% of positive control peptide) was 7.1.

Turning to IIFWVSRGR, the In Vitro Score (% of positive control peptide) worked out at 2.6.

As for IFWVQRGRK, the In Vitro Score (% of positive control peptide) came out at 6.1.

Take IIFWVKRGL: the In Vitro Score (% of positive control peptide) turned out to be 82.2.

WVKRGSKKL: the In Vitro Score (% of positive control peptide) was determined as 3.

Take VAFIIFWVS: the In Vitro Score (% of positive control peptide) stood at 70.6.

Consider IFWVKRGLK, for which the In Vitro Score (% of positive control peptide) is 2.4.

As to IFWVSRGRK, the In Vitro Score (% of positive control peptide) was found to be 1.3.

For IIFWVHRGR, the In Vitro Score (% of positive control peptide) amounted to 4.7.

In the case of IIFWVKRGS, the In Vitro Score (% of positive control peptide) came out at 13.6.

For the molecule IFWVQRGNK, the In Vitro Score (% of positive control peptide) came out at 16.1.

With WVKRGNKKL, the In Vitro Score (% of positive control peptide) turned out to be 2.4.

The target in another experiment is HLA-A*03:01 (human). The experiment is described as follows: REVEAL MHC-peptide binding assay, recombinant HLA. The settings on record: remark: other sources report otherwise.
Consider AFIIFWVHR, for which the In Vitro Score (% of positive control peptide) was determined as 0.3.

FIIFWVHRG: the In Vitro Score (% of positive control peptide) was found to be 0.

As for WVQRGNKKL, the In Vitro Score (% of positive control peptide) amounted to 1.5.

With IFWVARGRK, the In Vitro Score (% of positive control peptide) was 53.7.

As to IFWVKRGSK, the In Vitro Score (% of positive control peptide) is 10.4.

As for IIFWVQRGR, the In Vitro Score (% of positive control peptide) was 18.

Consider IIFWVKRGR, for which the In Vitro Score (% of positive control peptide) is 24.3.

With AFIIFWVAR, the In Vitro Score (% of positive control peptide) amounted to 0.5.

Regarding IIFWVQRGA, the In Vitro Score (% of positive control peptide) stood at 2.7.

On to AFIIFWVSR, for which the In Vitro Score (% of positive control peptide) is 0.3.

In the case of IFWVQRGAK, the In Vitro Score (% of positive control peptide) worked out at 17.

IFWVHRGRK: the In Vitro Score (% of positive control peptide) came to 37.8.

Take IIFWVSRGR: the In Vitro Score (% of positive control peptide) came to 25.3.

For IFWVQRGRK, the In Vitro Score (% of positive control peptide) is 36.7.

For the molecule IIFWVKRGL, the In Vitro Score (% of positive control peptide) came to 15.9.

Regarding WVKRGSKKL, the In Vitro Score (% of positive control peptide) came out at 1.9.

As to VAFIIFWVS, the In Vitro Score (% of positive control peptide) worked out at 0.7.

Take IFWVKRGLK: the In Vitro Score (% of positive control peptide) was 26.9.

In the case of IFWVSRGRK, the In Vitro Score (% of positive control peptide) came to 39.2.

As for IIFWVHRGR, the In Vitro Score (% of positive control peptide) was 30.1.

IIFWVKRGS: the In Vitro Score (% of positive control peptide) is 16.2.

In the case of IFWVQRGNK, the In Vitro Score (% of positive control peptide) was 23.2.

As for WVKRGNKKL, the In Vitro Score (% of positive control peptide) was 0.9.

A further experiment has as its target HLA-A*11:01 (recombinant MHC class I molecule) (human). The experiment is described as follows: REVEAL MHC-peptide binding assay, stabilisation of ternary complex with recombinant MHC. The settings on record: remark: other sources report otherwise.
VAFIIFWVR [… synthetic peptide K28R (SEQ ID NO: 100)]: the In Vitro Score (% of positive control peptide) came to 34.6.

The next experiment deals with HLA-B*08:01 (recombinant MHC class I molecule) (human). Described as above. The note with it: remark: other sources report otherwise.
With VAFIIFWVR [… synthetic peptide K28R (SEQ ID NO: 100)], the In Vitro Score (% of positive control peptide) worked out at 0.1.
